Laboratory results from patent publication US20080213817.

Key:
[1] = tested on: GST-c-Jun fusion protein [GST: P08515]
E3 ubiquitin ligase Itch = E3 ubiquitin ligase Itch (UniProt Q8C863)
Chain of E3 ubiquitin ligase Itch (UniProt Q8C863) (Q8C863 2-864): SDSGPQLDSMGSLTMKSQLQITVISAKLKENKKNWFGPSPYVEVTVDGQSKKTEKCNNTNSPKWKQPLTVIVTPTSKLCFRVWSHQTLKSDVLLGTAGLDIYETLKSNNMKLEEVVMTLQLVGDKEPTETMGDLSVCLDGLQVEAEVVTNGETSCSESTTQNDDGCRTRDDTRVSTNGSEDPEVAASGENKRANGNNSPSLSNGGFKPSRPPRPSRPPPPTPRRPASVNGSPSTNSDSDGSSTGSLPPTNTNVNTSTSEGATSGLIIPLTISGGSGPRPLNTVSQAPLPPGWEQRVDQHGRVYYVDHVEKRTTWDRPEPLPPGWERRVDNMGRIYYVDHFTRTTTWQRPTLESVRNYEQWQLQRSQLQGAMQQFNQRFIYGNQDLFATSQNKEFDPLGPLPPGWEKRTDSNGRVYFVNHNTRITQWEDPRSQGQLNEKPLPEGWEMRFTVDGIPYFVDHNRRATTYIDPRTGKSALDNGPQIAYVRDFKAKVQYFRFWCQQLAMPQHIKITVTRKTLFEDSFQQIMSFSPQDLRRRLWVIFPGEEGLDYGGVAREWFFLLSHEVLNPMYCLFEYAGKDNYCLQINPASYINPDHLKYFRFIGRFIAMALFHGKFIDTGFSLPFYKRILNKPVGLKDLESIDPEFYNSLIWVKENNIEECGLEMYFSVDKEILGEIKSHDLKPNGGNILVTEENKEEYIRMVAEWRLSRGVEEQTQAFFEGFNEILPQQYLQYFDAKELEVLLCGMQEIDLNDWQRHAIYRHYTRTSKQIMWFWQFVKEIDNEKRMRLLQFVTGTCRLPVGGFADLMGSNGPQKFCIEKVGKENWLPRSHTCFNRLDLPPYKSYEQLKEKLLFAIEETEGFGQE

Chain of GST-c-Jun fusion protein [GST: P08515] (P08515 whole entry, looked up, the tested form may be a part): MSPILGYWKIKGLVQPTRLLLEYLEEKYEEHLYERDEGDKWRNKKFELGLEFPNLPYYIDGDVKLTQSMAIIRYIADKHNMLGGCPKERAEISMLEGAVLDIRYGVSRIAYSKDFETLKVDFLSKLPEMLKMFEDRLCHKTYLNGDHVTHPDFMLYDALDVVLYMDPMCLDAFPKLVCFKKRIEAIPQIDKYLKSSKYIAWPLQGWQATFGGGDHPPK
Chain of E3 ubiquitin ligase Itch (chain, as listed by the source): as the sequence (Q8C863 2-864) above

Substance	polyubiquitination of c-Jun (in vitro ubiquitination assay, immunoblot with anti-c-Jun) [1]	Itch phosphorylation (in vitro kinase reaction with [gamma-32P]ATP, autoradiography) (E3 ubiquitin ligase Itch)
E3 ubiquitin ligase Itch	Itch isolated from primary T cells mediated polyubiquitination of c-Jun in a manner dependent on E1 and E2	
c-Jun N-terminal kinase 1 (JNK1), active		Incubation of Itch with active JNK1 also led to its efficient phosphorylation
